The chains are these.
B1: APY-Aib8.am (peptide)
peptide: APYCVYRXSWSC
modifications: aminoisobutyric acid (Aib) at position 8; C-terminal amide; disulfide bridge Cys4-Cys12
B2: APY-βAla8.am (peptide)
peptide: APYCVYRXSWSC
modifications: βAla (3-aminopropanoic acid) at position 8; C-terminal amide; disulfide bridge Cys4-Cys12

Bridge positions count the residues as written; N and C are the ends. Square brackets hold non-standard residues; d marks the D form. Ends that are not written are not given here. βAla = NCCC(=O)O

The target of one assay is T1, mouse EphA4 ectodomain fused to Fc (mouse, UniProt Q03137 20-547).
T1 construct: extracellular domain; Defined as 'EphA4 Fc; also called EphA4 Fc; not shown: Fc portion
T1 sequence (Q03137 20-547): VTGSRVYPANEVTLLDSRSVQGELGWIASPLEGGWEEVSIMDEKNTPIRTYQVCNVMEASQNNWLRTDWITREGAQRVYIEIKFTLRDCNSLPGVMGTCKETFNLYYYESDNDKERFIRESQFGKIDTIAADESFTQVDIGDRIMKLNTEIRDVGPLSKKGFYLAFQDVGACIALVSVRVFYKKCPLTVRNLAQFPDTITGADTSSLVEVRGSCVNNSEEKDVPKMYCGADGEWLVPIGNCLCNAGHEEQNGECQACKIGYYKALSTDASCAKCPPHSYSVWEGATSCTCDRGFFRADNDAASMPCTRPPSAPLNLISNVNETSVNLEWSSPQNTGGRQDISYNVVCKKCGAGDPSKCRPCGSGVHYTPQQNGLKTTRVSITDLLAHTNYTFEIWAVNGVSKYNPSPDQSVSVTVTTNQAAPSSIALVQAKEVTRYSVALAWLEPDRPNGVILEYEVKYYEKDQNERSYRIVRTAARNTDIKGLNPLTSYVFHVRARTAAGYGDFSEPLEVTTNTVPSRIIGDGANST
Put plainly: competition ELISA: ephrin-A5 AP binding to immobilized EphA4 Fc. As to the method: OD₄₀₅ was measured and the absorbance from wells coated with Fc was subtracted as background.
(In an ELISA, binding on a coated surface is turned into a signal by an enzyme label.)
The term IC50 denotes the concentration needed to halve the response being measured. High values mean weaker potency, low ones greater potency. With APYCVYRGSWSC-NH2 (disulfide 4-12, C-terminally amidated APY) [APY.am], the IC50 amounted to 280 nM.
On the same count and under the same terms, to XPYCVYRGSWSC (βAla at position 1; C-terminal amide; disulfide bridge Cys4-Cys12) [βAla1-PY.am] belongs 680 nM; to APYCVYRXSWSC (D-Ala at position 8; C-terminal amide; disulfide bridge Cys4-Cys12) [APY-DAla8.am], 280 nM.
Still for that read-out and setting: to B1 belongs 2600 nM; to APYCVYK[βAla]SWSC-NH2 (disulfide 4-12 (inferred), also called APYCVYKβASWSC-am) [APY-Lys7-βAla8.am], 68 nM; to XPYCVYRGSWSC (D-Ala at position 1; C-terminal amide; disulfide bridge Cys4-Cys12) [DAla1-PY.am], 1100 nM.
Molecule KYCVYR[βAla]SWSC-NH2 (disulfide 3-11 (inferred), numbers may be shifted) [KY-βAla8.am] returned an IC50 of 260 nM.
On the same count and under the same terms, to Ac-KYCVYR[βAla]SWSC-NH2 (disulfide 3-11 (inferred), numbers may be shifted) [ac.KY-βAla8.am] belongs 1160 nM; to YCVYR[βAla]SWSC-NH2 (disulfide 2-10 (inferred), numbers may be shifted) [Y-βAla8.am], 1470 nM.

A further assay deals with EphA4 in stably transfected human embryonal kidney (HEK293) cells. Put plainly: cell-based or functional assay.
On to B2, for which the “IC50 of inhibition of ephrin-A5-induced EphA4 tyrosine phosphorylation in HEK293 cells” value is roughly 300 nM.

The values above are taken from US20190038704A1 (SANFORD BURNHAM PREBYS MEDICAL DISCOVERY INSTITUTE, published 2019).
